No end group written: not given here. *: point of attachment. Biotin = O=C1N[C@H]2[C@H](CS[C@H]2CCCCC(=O)*)N1

The results in this text go back to patent US11266642B2, “Small molecule inhibitors of HLA-DR3 binding for treating autoimmune thyroiditis” (ICAHN SCHOOL OF MEDICINE AT MOUNT SINAI, priority 2015, dated 2022).

The assay addresses T1, HLA-DR3 on VAVY cells (HLA-DRβ1-Arg74 positive) (Homo sapiens, UniProt P01903+P01911, A100K/A102G/A103R/A169T/F55Y/I96L/K41T/L162R/M171V/P40S/Q125H/Q178H/Q39Y/R42S/S66N/T106N/T262R/W38E/Y61H).
T1 construct: VAVY B-cell line that is homozygous for DR3 (confirmed to contain DRβ1-Arg74); host or cells: VAVY B-cell line
As to the kind of experiment: Tg.2098 peptide binding to VAVY cells, flow cytometry. In kind it is cell-based. The conditions noted are these: incubated without Ia (40% Captisol alone); biotinylated peptide. Here is the method: VAVY cells (European Collection of Cell Cultures) were cultured in RPMI (ATCC, Manassas, Va.) supplied with 10% FBS (Sigma-Aldrich, St. Louis, Mo.), 1% Penicillin-Streptomycin (Corning, N.Y.), 2 mM glutamine (Corning, N.Y.) and […] ciprofloxacin hydrochloride (Hospira, Lake Forest, Ill.). Cells were grown at 37° C., 5% CO2 and passaged 1-2 times a week. Cells expressing DR2 (National Development and Research Institutes, Inc) were cultured using the same conditions as VAVY cells. N-terminal biotinylated peptide Tg.2098 was used to test for binding to VAVY cells which express HLA-DR3 on their surface (HLA-DRβ1-Arg74 positive). APC Streptavidin (BD Biosciences, Franklin Lakes, N.J.) was used to detect the biotinylated peptides. A scrambled peptide of Tg.2098 (scr2098) was used as a negative control. VAVY cells were seeded at 2.5×10^6 cells/mL in a 24-well plate (BD Biosciences) and pre-incubated for 7 hours with 0.025 mM of compound Ia or 40% Captisol (Ligand Pharmaceuticals, Inc, La Jolla, Calif.) [the vehicle used to dissolve test compound in this experiment], before 0.5 μM Tg.2098 was added. After 24 h incubation, cells were stained with PE mouse anti-human HLA-DR (BD Biosciences) and APC Streptavidin to detect binding of the peptide to VAVY cells and the inhibitory effect of Compound Ia. Inhibition was analyzed by flow cytometry. As a negative control, cells expressing HLA-DR2 were pre-incubated with example Ia or 40% Captisol, before biotinylated myelin basic protein (MBP) 87-99 (known binder to HLA-DR2) was added and incubated for 24 hours. HLA-DR2 cells were stained with PE mouse anti-human HLA-DR and APC Streptavidin to detect binding of biotinylated MBP87-99 to DR2 expressing cells and to assess the inhibitory effect of compound Ia on peptide binding. To confirm the ELISA results we performed binding inhibition studies using the VAVY B-cell line that is homozygous for DR3 (confirmed to contain DRβ1-Arg74). […]

T1 sequence (P01903 26-254, other chains not shown): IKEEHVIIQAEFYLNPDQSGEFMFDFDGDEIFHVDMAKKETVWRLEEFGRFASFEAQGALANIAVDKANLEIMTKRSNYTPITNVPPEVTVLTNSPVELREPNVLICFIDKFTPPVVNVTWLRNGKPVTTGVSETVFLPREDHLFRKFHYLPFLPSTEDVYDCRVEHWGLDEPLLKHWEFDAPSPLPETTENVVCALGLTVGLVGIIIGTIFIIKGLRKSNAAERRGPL

Take HDLFSRIDSSVVVVP [scr.2098]: the “binding of peptide to HLA-DR3-positive VAVY cells” value stood at 2.1%.

Regarding “LSSVVVDPSIRHFDV (Biotin-LSSVVVDPSIRHFDV) [Tg.2098]”, the “binding of peptide to HLA-DR3-positive VAVY cells” value was determined as 42.7%.
